Target: human von Willebrand factor (VWF) (human) (UniProt P04275)
Experiment: SPR

| Kd [nM] | koff [s⁻¹] | kon [M⁻¹ s⁻¹] | Substance |
| --- | --- | --- | --- |
| 0.26 | 0.00087 | 3.4e+06 | recombinant B-domain-deleted FVIII (rBDD FVIII) (from UniProt P00451 1668-2351) (natural protein) |
| 0.34 | 0.00089 | 2.6e+06 | recombinant factor VIII–Fc fusion protein (rFVIIIFc) (from UniProt P00451 1668-2351) |
